# Experimental data as given in patent US20260092121A1 (TALEM THERAPEUTICS, published 2026).
# How the values were obtained:
# human TrkB-His [1] = biological target: T1, human TrkB-His (human, UniProt Q16620 32-430); assay: BLI off-rate, mAb immobilized, 300 nM TrkB-His
# T1 construct: in-house fusion of the TrkB ECD with poly-His, HEK293; also called huTrkB-His; hTrkB-His; not shown: poly-His tag
# [2] = biological target: TrkB in PathHunter eXpress TrkB Functional Assay cells (modified U2OS); assay: cell-based or functional assay
# human TrkB-His [3] = biological target: T1, human TrkB-His; assay: ELISA
# human TrkB-ECD-GST = biological target: T2, human TrkB-ECD-GST (human, UniProt Q16620 32-430); assay: ELISA
# T2 construct: in-house fusion, HEK293; also called hTrkB-ECD-GST; human TrkB-GST; not shown: glutathione S-transferase (GST) fusion part
# mouse TrkB-ECD-GST = biological target: T3, mouse TrkB-ECD-GST (mouse, UniProt P15209 32-429); assay: ELISA
# T3 construct: extracellular domain; in-house fusion, HEK293; also called mTrkB-ECD-GST; mTrkB (ELISA); not shown: glutathione S-transferase (GST) fusion part
koff (human TrkB-His [1]),TrkB activation (EC50) [2],binding result (human TrkB-His [3]),Binder,other results
0.000483 s⁻¹,7.5 ng/mL,–,"anti-TrkB chicken-derived clone B1.2 (antibody, V domains shown, chimeric chicken-human mAb) VH: AVTLDESGGGLQTPGGGLSLVCKASGFTFSNHQMAWVRQAPGKGLEYVGLINAAGSWTYYGTAVKGRATISRDNGQSTVRLQLNNLRAEDTATYYCAKDVYGYCSTCGATIDTWGHGTEVIVSS VL: QAALTQPSSVSANPGETVKITCSGPTYDYGWFQQKSPGSAPVTVIYYNDNRPSDIPSRFSGSKSGSTATLTITGVQAEDEAVYYCGTYEDNNGASFGAGTTLTVL",–
0.00163 s⁻¹,46 ng/mL,–,"anti-TrkB chicken-derived clone F5 (antibody, V domains shown, chimeric chicken-human mAb) VH: not shown VL: QAALTQPASVSANPGETVKITCSGYKSYYGWYQQKSPGSAPVTVIYDNTNRPSNIPSRFSGSTSGSTATLTITGVQADDEAVYYCGNADHSYVGVFGAGTTLTVL",–
–,–,binds,"KiH.3C12_TrkB × 1A09_CD3 (bispecific antibody, scFv-knob-Fc (IgG1 T366W/S354C) + Fab-hole-Fc (T366S/L368A/Y407V/Y349C); also called 3C12-1A09; 3C12/1A09) scFv: QVQLVQSGAEVKKPGESLKISCKGSGYSFTSYWIGWVRQMPGKGLEWMGIIYPGDSDTRYSPSFQGQVTISADKSISTAYLQWSSLKASDTAMYYCTRSSFNDHWGQGTLVTVSSSSGGGGSGGGGSGGSALQPVLTQPPSVSVSPGQTASITCSGDKLGNKFVSWFQQKPGQSPVLVIYQDTKRPSGIPERFSGSNSGSTATLTITGTQAMDDADYYCQAWNTNTALFGGGTKLTVL VH: EVQLVQSGGGLVKPGGSLRLSCAASGFTFSSYSMNWVRQAPGKGLEWVSSISSSSSYIYYADSVKGRFTISRDNSKNTLYLQMNSLRAEDTAVYYCARVKDYDSSLDYWGQGTLVTVSS VL: SYELMQPPSVSVSPGQTARITCSGFKLGDKYVSWYQQKPGQSPVLVIYQDSKRPSGIPERFSGSNSGNTATLTISGTQAMDEADYYCQAWDSSTVVFGGGTKLTVL",–
–,–,–,"anti-TrkB clone 3D06 (antibody, V domains shown, full-length IgG) VH: EVQLVQSGAEVKKPGESLKISCQGSGYTFTNYWIAWVRQMPGKGLEWMGIIYPGDSDTRYSPSFQGQVTISADKSISTAYLQWSSLKASDTAMYYCAIGYDYGAFDIWGQGTMVTVSS VL: QPVLTQPPSASGTPGQRVSISCSGSNSNIGSNSVYWYQQLPGTAPKLLIYRNNQRPSGVPDRFSGSKSGTSASLAISGLRSEDEADYYCAAWDDSLSGYVFGTGTQLTVL",binding result (human TrkB-ECD-GST): no binding (tested: up to 10 µg/mL); binding result (mouse TrkB-ECD-GST): no binding (tested: up to 10 µg/mL)
0.00434 s⁻¹,0.00086 ng/mL,–,"anti-TrkB chicken-derived clone B11 (antibody, V domains shown, chimeric chicken-human mAb) VH: AVTLDESGGGLQTPGGALSLVCKASGFTFSSFNMFWVRQAPGKGLEFVAHIKRNGGETDYGAAVKGRATISRDDGQSTVRLQLNNLRAEDTATYFCAKDAGDNCRWNYCTTNIDAWGHGTEVIVSS VL: QAALTQPASVSANPGETVKITCSGGGRWYGTYYYGWYQQKSPGSAPVTVIYSNDKRPSDIPSRFSGSASGSTATLTITGVQADDEAVYYCGSWDSTDTTAFGAGTTLTVL",–
0.000575 s⁻¹,170 ng/mL,–,"anti-TrkB chicken-derived clone E2 (antibody, V domains shown, chimeric chicken-human mAb) VH: AVTLDESGGGLQTPGGALSLVCKASGFDFSSNAMGWVRQAPGKGLEFIASITTDGSYTTYGAAVKGRATISRDDGQSTLRLQLNNLRAEDTATYYCAKDSSIHWNGYDIDAWGHGTEVIVSS VL: QAALTQPSSVSANPGETVKITCSGSINNYGWYQQKSPGSAPVTVIYQNDKRPSDIPSRFSGSKSGSTGTLTITGVQAEDEAVYFCGSEDSRTYLGIFGAGTTLTVL",–
0.00136 s⁻¹,–,–,"anti-TrkB chicken-derived clone B4.2 (antibody, V domains shown, chimeric chicken-human mAb) VH: AVTLDESGGGLQTPGGGLSLVCKASGFTFSSYTMQWVRQAPGKGLEWVAGICNDGTTTNYGSAVKGRATISRDNGQSTLRLQLNNLRAEDTGIYFCTRGVDICWNSGNNIDAWGHGTEVIVSS VL: QAALTQPASVSANPGETVKITCSGGGSYYGSYYYGWYQQKSPGSAPVTVIYNNDKRPSDIPSRFSGSLSGSTNTLTITGVQVEDESVYFCGSKDSSGAGIYGAGTTLTVL",–
–,–,binds,"KiH.6E08_TrkB × 8A05_CD3 (bispecific antibody, scFv-knob-Fc (IgG1 T366W/S354C) + Fab-hole-Fc (T366S/L368A/Y407V/Y349C); also called 6E08-8A05) scFv: QVQLVQSGGGVVQPGRSLRLSCAASGFTFSSYAMHWVRQAPGKGLEWVAVISYDGSNKYYADSVKGRFTISRDNSKNTLYLQMNSLRAEDTAVYYCARAFRRYDAFDIWGQGTLVTVSSSSGGGGSGGGGSGGSALDIQMTQTPLSLSVTLGQPASISCRSSQGLVYSDGNTYLNWFQQRPGQSPRRLIYKVSNRDSGVPDRFSGSGSGTDFTLKISRVEAEDVGVYYCMQGTHWPPAFGQGTKVEIK VH: QVQLQQSGGGLVQSGGSLRLSCAASGFSFGSSAMSWVRQAPGRGLEWVSGISHSGSTTYYADSVKGRFTISRDNSKNTLYLQMNSLRVEDTAVYYCAKIGAYGYYFHYWGQGTLVTVSS VL: NFMLTQPHSVSESPGKTVTISCTRSGGSIASNYVQWYQQRPGSSPTTVIYDDNQRPSGVPDRFSGSIDSSSNSASLTISGLKTEDEADYYCQSSDNINHVIFGGGTKLTVL",–
–,–,binds,"KiH.6E08_TrkB × 3G07_CD3 (bispecific antibody, scFv-knob-Fc (IgG1 T366W/S354C) + Fab-hole-Fc (T366S/L368A/Y407V/Y349C); also called 6E08-3G07) scFv: QVQLVQSGGGVVQPGRSLRLSCAASGFTFSSYAMHWVRQAPGKGLEWVAVISYDGSNKYYADSVKGRFTISRDNSKNTLYLQMNSLRAEDTAVYYCARAFRRYDAFDIWGQGTLVTVSSSSGGGGSGGGGSGGSALDIQMTQTPLSLSVTLGQPASISCRSSQGLVYSDGNTYLNWFQQRPGQSPRRLIYKVSNRDSGVPDRFSGSGSGTDFTLKISRVEAEDVGVYYCMQGTHWPPAFGQGTKVEIK VH: QVQLQQSGGGLVQPGGSLRLSCAASGFSFGSSAMSWVRQAPGRGLEWVSGISHSGSTTYYADSVKGRFTISRDNSKNTLYLQMNSLRVEDTAVYYCAKIGAYGYYFHYWGQGTLVTVSS VL: NFMLTQPHSLSESPGKTVTISCTRSSGSIASKYVQWYQQRPGSAPTTVIYDDKQRPSGVPDRFSGSFDSSSNSASLTISGLKTEDEADYYCQSFDSTNQAVVFGGGTKLTVL",–
–,–,binds,"KiH.3C12_TrkB × 3G07_CD3 (bispecific antibody, scFv-knob-Fc (IgG1 T366W/S354C) + Fab-hole-Fc (T366S/L368A/Y407V/Y349C); also called 3C12-3G07; 3C12/3G07) scFv: QVQLVQSGAEVKKPGESLKISCKGSGYSFTSYWIGWVRQMPGKGLEWMGIIYPGDSDTRYSPSFQGQVTISADKSISTAYLQWSSLKASDTAMYYCTRSSFNDHWGQGTLVTVSSSSGGGGSGGGGSGGSALQPVLTQPPSVSVSPGQTASITCSGDKLGNKFVSWFQQKPGQSPVLVIYQDTKRPSGIPERFSGSNSGSTATLTITGTQAMDDADYYCQAWNTNTALFGGGTKLTVL VH: QVQLQQSGGGLVQPGGSLRLSCAASGFSFGSSAMSWVRQAPGRGLEWVSGISHSGSTTYYADSVKGRFTISRDNSKNTLYLQMNSLRVEDTAVYYCAKIGAYGYYFHYWGQGTLVTVSS VL: NFMLTQPHSLSESPGKTVTISCTRSSGSIASKYVQWYQQRPGSAPTTVIYDDKQRPSGVPDRFSGSFDSSSNSASLTISGLKTEDEADYYCQSFDSTNQAVVFGGGTKLTVL",–
–,–,binds,"KiH.3C12_TrkB × 8A05_CD3 (bispecific antibody, scFv-knob-Fc (IgG1 T366W/S354C) + Fab-hole-Fc (T366S/L368A/Y407V/Y349C); also called 3C12-8A05; 3C12/8A05) scFv: QVQLVQSGAEVKKPGESLKISCKGSGYSFTSYWIGWVRQMPGKGLEWMGIIYPGDSDTRYSPSFQGQVTISADKSISTAYLQWSSLKASDTAMYYCTRSSFNDHWGQGTLVTVSSSSGGGGSGGGGSGGSALQPVLTQPPSVSVSPGQTASITCSGDKLGNKFVSWFQQKPGQSPVLVIYQDTKRPSGIPERFSGSNSGSTATLTITGTQAMDDADYYCQAWNTNTALFGGGTKLTVL VH: QVQLQQSGGGLVQSGGSLRLSCAASGFSFGSSAMSWVRQAPGRGLEWVSGISHSGSTTYYADSVKGRFTISRDNSKNTLYLQMNSLRVEDTAVYYCAKIGAYGYYFHYWGQGTLVTVSS VL: NFMLTQPHSVSESPGKTVTISCTRSGGSIASNYVQWYQQRPGSSPTTVIYDDNQRPSGVPDRFSGSIDSSSNSASLTISGLKTEDEADYYCQSSDNINHVIFGGGTKLTVL",–
0.0156 s⁻¹,380 ng/mL,–,"anti-TrkB chicken-derived clone F1.3 (antibody, V domains shown, chimeric chicken-human mAb) VH: AVTLDESGGGLQTPGGALSLVCKASGFTFSSFPMVWVRQAPGKGLEFVAGIVRTSTPKYGAAVTGRATISRDNGQSTVRLQLNNLRAEDTGTYFCAKSATICGNCPEDIDAWGHGTEVIVSS VL: QAALTQPASVSANPGETVKITCSGGSSDYGWFQQKSPGSAPVTVIYYSDKRPSDIPSRFSGSTSGSTNTLTITGVQVEDEAVYFCGSGDNSYVGFGAGTTLTVL",–
0.00176 s⁻¹,4.5 ng/mL,–,"anti-TrkB chicken-derived clone A12 (antibody, V domains shown, chimeric chicken-human mAb) VH: AVTLDESGGGLQTPGGALSLVCKASGFTFSSFPMVWVRQAPGKGLEFVAGIVRTSTPKYGAAVTGRATISRDNGQSTVRLQLNNLRAEDTGTYFCAKSATICGNCPEDIDAWGHGTEVIVSS VL: QAALTQPASVSANPGETVKITCSGGSSDYGWFQQKSPGSAPVTVIYYSDKRPSDIPSRFSGSASGSMGALIITGVQAEDEAVYFCGSRDSSNVAIFGAGTTLTVL",–
0.00114 s⁻¹,8.9 ng/mL,–,"anti-TrkB chicken-derived clone B5 (antibody, V domains shown, chimeric chicken-human mAb) VH: AVTLDESGGGLQTPGGALSLVCKASGFTFSSFPMVWVRQAPGKGLEFVAGIVRTSTPKYGAAVTGRATISRDNGQSTVRLQLNNLRAEDTGTYFCAKSATICGNCPEDIDAWGHGTEVIVSS VL: QAALTQPASVSANPGETVKITCSGGSSDYGWFQQKSPGSAPVTVIYYSDKRPSDIPSRFSGSTSGSMGALIITGVQAEDEAVYFCGSRDSSNVAIFGAGTTLTVL",–
0.000219 s⁻¹,180 ng/mL,–,"anti-TrkB chicken-derived clone D5 (antibody, V domains shown, chimeric chicken-human mAb) VH: AVTLDESGGGLQTPGGPLSLVCEGSGFTFSSYGMAWVRQAPGKRLEWVASISSTGINAYYGAAVKGRATISRDNGQSTVRLQLNNLRAEDTGIYYCSKCAYSGSCSTSIDAWGHGTEVIVSS VL: QAALTQPASVSANLGGTVEITCSGGSSGYGYGWYQQKSPGSAPVTVIYNNNNRPSDIPSRFSGSLSDSTHTLTITGVRAEDEAVYFCGAWESSATDIFGAGTTLTVL",–
–,–,–,"anti-TrkB clone 4D01 (antibody, V domains shown, full-length IgG) VH: EVQLVQSGAEVKKPGESLKISCKGSRYSFTSYWIGWVRQMPGKGLEWMGIIYPGDSDTRYSPSFQGQVTISADKSISTAYLQWSSLKASDTAMYYCARLKDGAFDIWGQGTMVTVSS VL: QAVLTQPPSASGTPGQRVTISCSGSSSNIEGNYVHWYQQLPGAAPKVLIYRNNQRPSGVPDRFSGSKSGTSASLAISGLRSEDETDYFCAAWDDSLNGYVFGAGTKVTVL",binding result (human TrkB-ECD-GST): no binding (tested: up to 10 µg/mL); binding result (mouse TrkB-ECD-GST): no binding (tested: up to 10 µg/mL)
